Experiments:
[1] = target: T1, ABX (Homo sapiens, UniProt P02768); test: Bio-Layer Interferometry (BLItz) binding of antibody to ABX; conditions: pH 3, 5, 7, 9; BEV also RT, 37° C. and 58° C.
T1 construct: purchased Celgene Corporation, Summit, N.J
Description: The association and dissociation constants were calculated using the BLItz software.

[2] = system: Daudi human lymphoma cells; test: Daudi xenotransplant model in athymic nude mice; format: in vivo; conditions: ABX 30 mg/kg, rituximab 12 mg/kg, or AR160
Description: (§1) To test tumor efficacy, 1×10^6 A375 human melanoma cells were implanted into the right flank of athymic nude mice (Harlan Sprague Dawley, Indianapolis, Ind.). […] Tumor size was monitored 3 times/week and tumor volume was calculated with the following equation: (length×width)/2. Mice were sacrificed when the tumor size equaled 10% of the mouse body weight or about 2500 mm^3. The day 7 percent change from baseline was calculated as follows: [(tumor size on treatment day-tumor size on day 7)/tumor size on treatment day]×100.

[3] = target: T2, CD20 (Homo sapiens, UniProt P11836); test: Blocking of fluorescent anti-CD20 labeling of Daudi cells (flow cytometry); format: binding; conditions: Daudi cells pretreated prior to CD20 labeling
T2 construct: host or cells: Daudi B-cell lymphoma cells
T2 sequence (P11836 1-297): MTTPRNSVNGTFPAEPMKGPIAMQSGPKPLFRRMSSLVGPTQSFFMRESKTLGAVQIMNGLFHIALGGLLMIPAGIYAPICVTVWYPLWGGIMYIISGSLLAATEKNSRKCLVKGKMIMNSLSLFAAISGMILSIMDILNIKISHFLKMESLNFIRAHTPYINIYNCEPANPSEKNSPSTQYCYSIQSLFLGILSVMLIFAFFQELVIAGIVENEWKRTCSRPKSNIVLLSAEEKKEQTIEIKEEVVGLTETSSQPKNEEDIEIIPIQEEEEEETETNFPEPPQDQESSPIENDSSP
Description: FIG. 12 depicts the results of an experiment in which CD20 positive Daudi lymphoma cells were labeled with fluorescent tagged anti-human CD20 or isotype matched control in panels F and A, respectively, and analyzed by flow cytometry.
CD20 positive Daudi lymphoma cells were labeled with fluorescent tagged anti-human CD20 or isotype matched control in panel F and A, respectively, and analyzed by flow cytometry.

[4] = system: A375 human melanoma cells; test: A375 human melanoma xenograft in athymic nude mice; format: in vivo
Description: In vivo experiments were performed at least 2 times. The number of mice required for those experiments was determined by power analysis. Mouse tumors were measured 2-3 times/week and mice were sacrificed when the tumor was 10% by weight. […] The end point of the mouse studies was median survival. Kaplan-Meier curves were generated and Mantle-Cox test was performed to determine significance of median survival between treatment groups. The in vitro results presented are representative of at least 5 repeated experiments. Statistical analyses of in vitro and in vivo percent change from baseline experiments were done using the Student's t-test.
as §1

Substance	pH and temperature dependence of binding affinity to ABX [1]	median survival [2] [days]	blocking of CD20 binding of fluorescent anti-CD20 [3]	therapeutic effect on tumor volume ([4]; 12 mg/kg dose)	median survival ([4]; BEV 12 mg/kg, ABX 30 mg/kg, BEV followed by ABX, or AB160) [days]
rituximab	decreased with higher pH	12	specifically blocked		
bevacizumab	highest binding affinity observed when the particles are formed at pH 5 and 58 °C			not therapeutic	14

From patent US11241387B2, “Carrier-binding agent compositions and methods of making and using the same” (Mayo Foundation for Medical Education and Research, priority 2015, dated 2022)
